Experimental data taken from patent publication US9012420B2, “Aptamer for chymase, and use thereof” (Ribomic Inc., priority 2009, dated 2015).

What was measured:
chymase [1] = target: T1, chymase (Homo sapiens, UniProt P23946 P23946:22-247); assay: inhibition; Suc-AAPF-MCA, 37 C, solution C; conditions: tags: recombinant, expressed in yeast, SIGMA
T1 sequence: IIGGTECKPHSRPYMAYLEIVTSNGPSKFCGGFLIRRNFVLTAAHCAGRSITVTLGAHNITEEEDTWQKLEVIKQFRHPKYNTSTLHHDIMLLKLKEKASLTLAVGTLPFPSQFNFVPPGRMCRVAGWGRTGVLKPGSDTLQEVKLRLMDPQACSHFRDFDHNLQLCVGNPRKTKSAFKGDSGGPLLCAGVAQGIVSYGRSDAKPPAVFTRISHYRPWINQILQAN
How it was run: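 Nucleic acids, serially diluted to 0.0027-2 μM before mixing, were preincubated with substrate in solution C for 5 min at 37 °C. Recombinant chymase started the reaction (final 16.7 nM or 1.67 nM; substrate 100 μM). AMC fluorescence (ex 380/em 460 nm) was followed for 5 (or 30) min; initial slope versus uninhibited velocity gave inhibition.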

chymase [2] = target: T1, chymase; assay: inhibition; angiotensin I; recombinant 0.201; conditions: tags: human skin mast cell, Calbiochem
Procedure: (§1) The total volume of solution for an enzyme reaction in the assay was set to 50 μL, and the reaction was performed in solution C buffer. First, 0.3-0.75 ng of chymase (recombinant, (manufactured by SIGMA) or native (manufactured by Calbiochem)) was diluted with solution C to give 5 μL thereof. Here, the recombinant is chymase expressed by yeast, and the native is chymase purified from human skin mast cell. The nucleic acid was serially diluted with solution C at a concentration of 0.0027-2 μM to give 25 μL thereof. The chymase solution (5 μL) and the nucleic acid solution (25 μL) were mixed, and the mixture was incubated at 37° C. for 5 min. […] The whole mixture was centrifuged at 4° C., 14000 rpm for 10 min, and the supernatant (30 μL) was used for the next fluorescence induction reaction.
(§2) The above-mentioned supernatant (30 μL) was added to a 96 well plate (black, manufactured by Costar), a solution (15 μL) of 2% o-phthalaldehyde (manufactured by SIGMA) in methanol and 0.3M NaOH solution (170 μL) were added to each well, and the mixture was incubated at room temperature for 10 min. […] The plate was set on a microplate reader SpectraMax190 (manufactured by Molecular device) and the fluorescence intensity was measured at an excitation wavelength of 355 nm and a fluorescence wavelength of 460 nm.

chymase [3] = target: T1, chymase; assay: inhibition; angiotensin I; recombinant 0.370; conditions: tags: human skin mast cell, Calbiochem
Procedure: as §1, §2

chymase [4] = target: T1, chymase; assay: inhibition; angiotensin I; recombinant 0.158; conditions: tags: human skin mast cell, Calbiochem
Procedure: as §1, §2

chymase [5] = target: T1, chymase; assay: inhibition; angiotensin I; recombinant 0.065; conditions: tags: human skin mast cell, Calbiochem
Procedure: as §1, §2

chymase [6] = target: T1, chymase; assay: inhibition; angiotensin I; recombinant 0.036; conditions: tags: human skin mast cell, Calbiochem
Procedure: as §1, §2

chymase [7] = target: T1, chymase; assay: inhibition; angiotensin I; recombinant 0.043; conditions: tags: human skin mast cell, Calbiochem; label: 5' biotin
Procedure: as §1, §2

GGGTTAGAUAGAGTUAAAAACCC (mixed, 2'-F U; 2'-OMe 1-3,7,8,10,13,16,18-20; DNA T4,T5,T14,A17,C21-C23; 5' and 3' idT) [72(5)]
IC50 (chymase [1]): 27 nM
IC50 (chymase [2]): 377 nM

B1: 72(6) (mixed)
mixed: GGGTTAGAUAGAGTUAAAAACCC
modifications: 2'-F U; 2'-OMe 1-3,7,8,10,13,16,17,19,20; DNA T4,T5,T14,A18,C21-C23; 5' and 3' idT
IC50 (chymase [3]): 573 nM
IC50 (chymase [1]): 41 nM

B2: 72(7) (mixed)
mixed: GGGTTAGAUAGAGTUAAAAACCC
modifications: 2'-F U; 2'-OMe 1-3,7,10,13,16-20; DNA T4,T5,A8,T14,C21-C23; 5' idT; 3' PEG 40 kDa
IC50 (chymase [1]): 55 nM
IC50 (chymase [4]): 312 nM

GGGTTAGAUAGAGTUAAAAACCC (mixed, 2'-F U; 2'-OMe 1-3,7,8,10,13,16-20; DNA T4,T5,T14,C21-C23; 5' and 3' idT) [SEQ 72]
IC50 (chymase [5]): 120 nM

GGGTTAGAUAGAGTUAAAAACCC (mixed, 2'-F U; 2'-OMe 1-3,7,10,13,16-20; DNA T4,T5,A8,T14,C21-C23; 5' and 3' idT) [72(1)]
IC50 (chymase [6]): 103 nM

GGGTTAGAUAGAGTUAAAAACCC (mixed, 2'-F U; 2'-OMe 1-3,7,10,13,16-20; DNA T4,T5,A8,T14,C21-C23; 5' and 3' idT) [72(8)]
IC50 (chymase [7]): 97 nM
